# In patent publication US20210179686A1, “CELL SORTING SYSTEMS AND METHODS OF USE” (MEMORIAL SLOAN-KETTERING CANCER CENTER, priority 2018, published 2021):
# B1: RR12EE345L linker EE12RR345L CD80: CD80 (B7-1) functionalized to present blocked capture leucine zipper, SEQ ID NO: 142 (protein)
# chain: METDTLLLWVLLLWVPGSTGLEIRAAFLRQRNTALRTEVAELEQEVQRLENEVSQYETRYGPLGGGKGGGGSGGGGSGGGGSGGGSLEIEAAFLERENTALETRVAELRQRVQRLRNRVSQYRTRYGPLGGGKEFTGSTSGSGKPGSGEGSTKGVDEQLSKSVKDKVLLPCRYNSPHEDESEDRIYWQKHDKVVLSVIAGKLKVWPEYKNRTLYDNTTYSLIILGLVLSDRGTYSCVVQKKERGTYEVKHLALVKLSIKADFSTPNITESGNPSADTKRITCFASGGFPKPRFSWLENGRELPGINTTISQDPESELYTISSQLDFNTTRNHTIKCLIKYGDAHVSEDFTWEKPPEDPPDSKNTLVLFGAGFGAVITVVVIVVIIKCFCKHRSCFRRNEASRETNNSLTFGPEEALAEQTVFL
# Tested on: soluble CD28-Fc
# Assay: binding of soluble CD28-Fc by CD80 functionalized leucine zipper T cells
# Conditions: FIG. 21B
# Source text: CD80 (B7-1) molecule functionalized to present blocked capture leucine zipper, permitting magnetic sorting with FLAG-RR12EE345L leucine zipper. T cells were transduced with vectors encoding (a) FLAG-RR12EE345L iCaspase9 CD19-myc-CAR and (b) RR12EE345L linker EE12RR345L CD80 CD20-streptag-CAR. Next, cells were magnetically sorted with anti-FLAG magnetic beads.
molecule,measurement,value
B1,binding to soluble CD28-Fc,bound to soluble CD28-Fc
